Assay results published in US9872921B2, “DE-N-acetyl sialic acid antigens, antibodies thereto, and methods of use in cancer therapy” (priority 2004, dated 2018).

Tests used:
human melanomas = assay: Immunostaining of frozen sections of human melanomas; conditions: frozen unfixed sections, 400× magnification
Method: To determine whether there is a difference in expression of SEAM 3-reactive antigen between normal melanocytes and melanoma tumor cells, immuno-staining of thin sections of each type of tissue were performed. In addition to SEAM 3, controls included the secondary antibody alone and R24, which binds to the ganglioside GD3 that is expressed in normal melanocytes and is overexpressed in some melanomas (Dippold et al. Proc Natl Acad Sci USA, 1980. 77(10): 6114-8.; Graus, et al., Brain Res, 1984. 324(1): 190-4; Houghton et al. Proc Natl Acad Sci USA, 1985. 82(4):1242-6; Panneerselvam et al. J Immunol, 1986. 136(7): 2534-41; Real et al. Cancer Res, 1985. 45(9): 4401-11; Vadhan-Raj et al. J Clin Oncol, 1988. 6(10): 1636-48; Welt t al. Clin Immunol Immunopathol, 1987. 45(2): 214-29).
The tissue sections were made from frozen samples of normal skin (HuSkinTb111 in FIG. 39) and two human melanomas (HuMel1151 and HuMel4034). To prevent the possibility of blocking de-N-acetyl antigen or extracting a lipid containing the antigen, the sections were prepared from frozen tissue and were dried onto the slides but not fixed with aldehydes or organic solvents (Chammas et al. Cancer Res, 1999. 59(6): 1337-46). […] Bound antibody was then detected using the DAKO LSAB kit following the manufacturer's directions (Thermo Fisher Scientific, Waltham, Mass.). […]

[1] = test system: Jurkat T-cell leukemia cells; assay: Fluorescence microscopy binding to cells; assay type: cell-based, human; conditions: without Triton
Method: After an overnight incubation cells were gently washed with PBS buffer and fixed with ice-cold 1% (v/v) formaldehyde. After 20 minutes cells were washed with PBS before blocking non-specific binding with a solution of 3% goat serum for 1 hour. To observe the presence of SEAM 3-reactive antigen that is present inside the cells, the cells were treated Triton X-100 0.5% w/v in 3% goat serum for 1 hour. The primary antibodies were added and incubated for 2 hours or overnight at 4° C. Cells were gently washed by a series (at least twice) with ice-cold PBS before isotype-specific secondary antibody (produced in goat) conjugated with either Alexa Fluor 488 (immunofluorescence and confocal), Alexa Fluor 546 (confocal) Alexa Fluor 594 (immunofluorescence), Alexa Fluor 633 (confocal) was applied for at least 1 hour at 4° C. in the dark (all secondary antibodies conjugated to fluorophores were obtained from Invitrogen, Carlsbad, Calif.). After another series of gentle washes, a hardening mounting medium containing DAPI was applied.
Confocal images were obtained using a Zeiss Meta510 CLSM at the Biological Imaging Facility, University of California, Berkeley, Calif. and were analyzed using ImageJ Software (NIH). Control antibodies and secondary antibodies applied alone were routinely used to assess background fluorescence.

SK-MEL 28 cells [2] = assay: Cell viability by ViaCount Reagent flow cytometry; assay type: cell-based, human
Method: Cell viability of SK-MEL 28 cells incubated in the presence of SEAM 3 or control mAbs (irrelevant isotype IgG2b or anti-GD3, R24) was determined using ViaCount Reagent (Guava Technologies, Hayward, Calif.), as per manufacturers instructions. […] The viability was analysed using a pre-set program on the Guava EasyCyte flowcytometer. The program has a preset gate for apoptosis and this was routinely incorporated into our studies.

SK-MEL 28 cells [3] = assay: Cell cycle analysis by propidium iodide staining and flow cytometry; assay type: cell-based, human; conditions: 48 h incubation
Method: To further assess the affect of SEAM 3 mAb on cell growth, the stage of the cell cycle after treatment with SEAM 3 was determined. In this experiment, the cells were stained with the fluorescent DNA binding dye propidium iodide to characterize cell populations in various stages of the cell cycle and the effects of adding control antibodies, nocodazole (a drug that arrest the cells in mitosis) and SEAM 3.
Approximately 10^5 SK-MEL 28 cells were plated on a 96-well tissue culture plate and allowed to adhere. After 24 h the medium was replaced with one that had either antibody or drug and incubated for a further 48 h. Cells were spun (to collect any cells that may have detached), and fixed in 70% ice-cold methanol (added drop wise) for at least 30 minutes at 4° C. The cells were washed twice with PBS, and to ensure that only DNA was stained, the fixed cells were treated with ribonuclease I (100 μg/ml, source) for 30 minutes at 37° C. Propidium iodide (50 μg/ml) was added and samples were analyzed using a Guava EasyCyte flow cytometer.

CHP-134 neuroblastoma = conditions: approximately proportional to level of antigen on cell surface

B1: SEAM 3: murine anti-N-Pr NmB polysaccharide monoclonal antibody (IgG2b), ATCC Deposit No. HB-12170 (antibody, V domains shown)
VH: EVKLQESGGGLVQPGDSLSLSCAASGFTFTPYYMGWVRQPPGKALEWLGYIRNKANGYTTEYSASVKGRFTISRDNSQSILYLQMNALRAEDSATYYCARYARGTVDSWGQGTTLTVS
VL: DIVMTQSPLTLSVTIGQPASISCKSSQSLLHSNGKTYLNWLLQRPGQSPKLLIYLVSKLESGVPDRFSGSGSGTDFTLKISRVEAEDLGLYYCLQIIHFPHTFGAGTKLELKRA
modifications: mouse
immunostaining of two human melanomas (human melanomas): staining is weaker but nearly all of the melanoma cells are stained
binding to cell surface by microscopy [1]: fluorescence is uniform over the cell surface
number of viable cells compared to irrelevant IgG2b control mAb (SK-MEL 28 cells [2]; 5 μg/ml, 24 h incubation): significantly decreases the number of viable cells
number of apoptotic cells compared to IgG2b control mAb (SK-MEL 28 cells [2]; 5 μg/ml, 48 h): increases the number of apoptotic
number of dead cells compared to IgG2b control mAb (SK-MEL 28 cells [2]; 5 μg/ml, 48 h): increases
number of viable cells compared to IgG2b control mAb (SK-MEL 28 cells [2]; 5 μg/ml, 48 h): decreases the number of viable cells
cytotoxic effect (SK-MEL 28 cells [2]; SK-MEL-28 melanoma, approximately proportional to level of antigen on cell surface): cytotoxic effect of SEAM 3 was observed
effect on cell cycle phase distribution (SK-MEL 28 cells [3]): reduced the proportion of cells in Go, S-phase and G2/M Phase, while increasing the number in pre-Go
cytotoxic effect (CHP-134 neuroblastoma): cytotoxic effect of SEAM 3 was observed
